Data published in patent US7364866B2, “Drosophila G protein coupled receptors, nucleic acids, and methods related to the same” (Pharmacia & Upjohn Company, priority 1999, dated 2008).
Non-standard residues stand in square brackets, D forms with d. No end group written: not given here. sY = N[C@@H](Cc1ccc(OS(=O)(=O)O)cc1)C(=O)O

Experiments:
DmGPCR9 [1] = test: [35S]GTPγS binding assay, membranes of transfected CHO cells; type: biochemical, Drosophila melanogaster; conditions: membranes from CHO cells transfected with DmGPCR9
Chain of DmGPCR9 (as listed by the source): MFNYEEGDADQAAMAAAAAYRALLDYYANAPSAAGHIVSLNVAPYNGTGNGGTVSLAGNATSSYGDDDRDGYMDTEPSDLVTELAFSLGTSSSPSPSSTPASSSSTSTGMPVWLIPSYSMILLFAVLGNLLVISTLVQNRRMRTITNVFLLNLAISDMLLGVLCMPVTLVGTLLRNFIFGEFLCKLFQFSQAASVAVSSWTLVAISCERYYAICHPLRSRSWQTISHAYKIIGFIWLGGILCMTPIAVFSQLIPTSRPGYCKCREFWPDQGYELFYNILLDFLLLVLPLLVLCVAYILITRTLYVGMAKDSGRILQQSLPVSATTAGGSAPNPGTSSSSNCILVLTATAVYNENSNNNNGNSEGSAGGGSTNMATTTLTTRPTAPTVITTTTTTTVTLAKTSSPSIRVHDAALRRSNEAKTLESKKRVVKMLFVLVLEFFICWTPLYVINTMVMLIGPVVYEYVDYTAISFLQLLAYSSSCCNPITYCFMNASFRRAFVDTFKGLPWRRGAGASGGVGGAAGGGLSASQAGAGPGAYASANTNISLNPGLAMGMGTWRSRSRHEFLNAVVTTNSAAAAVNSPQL
Protocol: (§1) The transfected cells were washed once with ice-cold Dulbecco's phosphate buffered saline (PBS), 5 ml per 10 cm plate, and scraped into 5 ml of the same buffer. Cell suspensions from multiple plates were combined and centrifuged at 500×g for 10 min at 4° C. The cell pellet was reconstituted in ice-cold TEE (25 mM TRIS, 5 mM EGTA, 5 mM EDTA). Convenient aliquots were snap-frozen in liquid nitrogen and stored at −70° C. After thawing, the cells were homogenized and centrifuged at 4° C., 500×g for 5 minutes to pellet nuclei and unbroken cells. The supernatant was centrifuged at 47,000×g for 30 minutes at 4° C. […] Membrane protein concentration was determined using the BCA Protein Assay Reagent from Pierce (Rockford, Ill.) and BSA as standard. […]
(§2) Ligand-induced stimulation of [^35S]GTPγS binding was expressed as fold increase over the basal activity with no ligand added. Each treatment was run either in triplicate, or, on occasion, in duplicate, and the binding (cpm) was calculated as means +/− standard deviations. Dose-response curves for the receptor/ligand systems were analyzed using a non-linear least square SAS model, y=Bmax X/(Kd+X). Other dose-response curves were analyzed using Prism (GraphPad Software, Inc. San Diego, Calif.) and the following equation y=Bottom+(Top−Bottom)/(1+10^LogEC50-X). […]

DmGPCR9 [2] = test: calcium mobilization assay (FLIPR); type: cell-based, Drosophila melanogaster; conditions: given in words
Protocol: (§3) Changes in intracellular calcium levels are another recognized indicator of G protein-coupled receptor activity, and such assays can be employed to screen for modulators of DmGPCR activity. For example, CHO cells stably transfected with a DmGPCR expression vector are plated at a density of 4×10^4 cells/well in Packard black-walled, 96-well plates specially designed to discriminate fluorescence signals emanating from the various wells on the plate. The cells are incubated for 60 minutes at 37° C. in modified Dulbecco's PBS (D-PBS) containing 36 mg/L pyruvate and 1 g/L glucose and one of four calcium indicator dyes (Fluo-3™ AM, Fluo-4™ AM, Calcium Green™-1 AM, or Oregon Green™ 488 BAPTA-1 AM), each at a concentration of 4 μM. […]
(§4) A calcium response is initiated by the addition of one or more candidate receptor agonist compounds, calcium ionophore A23187 (10 μM; positive control), or ATP (4 μM; positive control). Fluorescence is measured by Molecular Device's FLIPR with an argon laser (excitation at 488 nm). […] Basal fluorescence of cells was measured for 20 seconds prior to addition of candidate agonist, ATP, or A23187, and the basal fluorescence level was subtracted from the response signal. The calcium signal is measured for approximately 200 seconds, taking readings every two seconds. […]

DmGPCR6a = molecular target: T1, DmGPCR6a (Drosophila melanogaster, UniProt P25931, I47L); test: [35S]GTPγS binding assay, membranes of transfected CHO cells; type: biochemical; conditions: peptide tested at 5 μM
T1 construct: expressed in transfected cells; host or cells: CHO cells, transient
T1 sequence (P25931 16-464 I47L): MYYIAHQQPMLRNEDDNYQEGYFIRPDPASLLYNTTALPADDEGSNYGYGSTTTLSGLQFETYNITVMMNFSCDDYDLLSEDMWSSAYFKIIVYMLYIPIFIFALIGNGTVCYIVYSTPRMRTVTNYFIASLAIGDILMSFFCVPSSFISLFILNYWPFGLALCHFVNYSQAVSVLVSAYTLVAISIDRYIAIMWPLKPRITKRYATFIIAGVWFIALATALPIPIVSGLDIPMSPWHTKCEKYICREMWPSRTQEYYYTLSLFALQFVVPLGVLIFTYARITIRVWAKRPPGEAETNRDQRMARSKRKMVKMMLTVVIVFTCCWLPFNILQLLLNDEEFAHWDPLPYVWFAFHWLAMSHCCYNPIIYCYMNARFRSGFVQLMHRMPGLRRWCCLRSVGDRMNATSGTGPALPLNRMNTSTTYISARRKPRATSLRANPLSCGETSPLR
Protocol: as §1, §2

Dmgpcr6aL = molecular target: T2, Dmgpcr6aL (Drosophila melanogaster, UniProt P25931, I47L); test: calcium mobilization assay (FLIPR); type: cell-based; conditions: FaRPs tested at 10 μM, active sequences listed in Table 7 (6aL and 6bL)
T2 construct: A new 5′ PCR primer was designed that incorporated the PnuFlyPep15731 start codon; expressed in transfected cells; host or cells: CHO-K1 or CHO-10001A, transient
T2 sequence (P25931 whole entry I47L): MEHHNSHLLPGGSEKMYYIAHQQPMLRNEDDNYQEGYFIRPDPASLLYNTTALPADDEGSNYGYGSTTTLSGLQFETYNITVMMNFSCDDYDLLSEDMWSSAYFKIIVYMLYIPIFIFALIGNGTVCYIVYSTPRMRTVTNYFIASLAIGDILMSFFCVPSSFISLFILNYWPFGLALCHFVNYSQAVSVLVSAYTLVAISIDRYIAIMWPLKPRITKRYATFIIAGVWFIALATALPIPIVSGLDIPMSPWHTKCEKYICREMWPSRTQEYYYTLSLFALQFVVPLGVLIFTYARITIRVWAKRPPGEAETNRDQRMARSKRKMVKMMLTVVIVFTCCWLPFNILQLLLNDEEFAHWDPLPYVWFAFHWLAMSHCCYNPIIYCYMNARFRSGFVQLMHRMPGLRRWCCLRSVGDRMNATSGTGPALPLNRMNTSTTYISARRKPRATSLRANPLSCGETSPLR
Protocol: as §3, §4

Dmgpcr6bL = molecular target: T3, Dmgpcr6bL (Drosophila melanogaster, UniProt P25931, I47L); test: calcium mobilization assay (FLIPR); type: cell-based; conditions: FaRPs tested at 10 μM, active sequences listed in Table 7 (6aL and 6bL)
T3 construct: A new 5′ PCR primer was designed that incorporated the PnuFlyPep15731 start codon; expressed in transfected cells; host or cells: CHO-K1 or CHO-10001A, transient
T3 sequence (P25931 other isoform, or with tags, fused parts or gaps I47L): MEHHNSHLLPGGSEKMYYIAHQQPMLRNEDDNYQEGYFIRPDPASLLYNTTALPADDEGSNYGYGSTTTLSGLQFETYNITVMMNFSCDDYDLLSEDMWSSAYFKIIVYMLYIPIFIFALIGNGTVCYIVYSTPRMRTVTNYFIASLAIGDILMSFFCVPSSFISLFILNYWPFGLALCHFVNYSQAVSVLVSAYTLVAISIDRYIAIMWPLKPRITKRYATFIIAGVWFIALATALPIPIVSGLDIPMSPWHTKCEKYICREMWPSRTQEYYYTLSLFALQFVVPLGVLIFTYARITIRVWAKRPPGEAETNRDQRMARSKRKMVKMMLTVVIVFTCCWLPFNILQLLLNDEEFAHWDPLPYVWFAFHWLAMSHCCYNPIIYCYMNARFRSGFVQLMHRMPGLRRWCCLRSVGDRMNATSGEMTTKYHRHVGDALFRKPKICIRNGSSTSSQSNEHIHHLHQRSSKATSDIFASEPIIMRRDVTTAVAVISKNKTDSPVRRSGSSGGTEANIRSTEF
Protocol: as §3, §4

Substance | GTPγS responses (DmGPCR9 [1]) | EC50, calcium mobilization assay (DmGPCR9 [2]) | increase in GTPγS binding above the basal (DmGPCR6a) [fold] | Ca+2 responses (FLIPR) (Dmgpcr6aL) | Ca+2 responses (FLIPR) (Dmgpcr6bL)
FDDY(SO3H)GHLRF-NH2 (FDD[sY]GHLRF-NH2; N-terminus assumed; SMILES CC(C)C[C@H](NC(=O)[C@H](Cc1c[nH]cn1)NC(=O)CNC(=O)[C@H](Cc1ccc(OS(=O)(=O)O)cc1)NC(=O)[C@H](CC(=O)O)NC(=O)[C@H](CC(=O)O)NC(=O)[C@@H](N)Cc1ccccc1)C(=O)N[C@@H](CCCNC(=N)N)C(=O)N[C@@H](Cc1ccccc1)C(N)=O) | no GTPγS responses | low nanomolar range | – | – | –
FLFQPQRF-NH2 [NPFF] | – | – | 4 | recognized | recognized
